Molecular target: the molecule itself
Experiment: crystal structure; QDE-1^Tte catalytic fragment apoenzyme, crystals grown at 30 °C in 100 mM Tris-HCl pH 8.0, 75 mM NaCl, 10% PEG 10,000, 5 mM MgCl2, 6 mM spermine; 3.19 Å; two non-crystallographic dimers (A/B, C/D) in the asymmetric unit

B1: QDE-1^Tte catalytic fragment (RNA-dependent RNA polymerase QDE-1 of Thielavia terrestris) (enzyme)
chain: EVYARLQNIWPKFPRWLHAAPLALAWELTRICLHCKVDLEDPTLRYDPSWATSDMAALWRSLTQLDVFRGKSFPERPSAEAFAAALTGNFESRGNTVVLSASLEFNPSKTGPLFLLDMKPLRFDEGCRLTRRFGPDRFLEVLVPSPTALNAPSILKDGGAAQVIRWLTEKPHSLVGRQWQAFYTKDAGYRKPARELRLGPDAKATFKERVHFFAERGHDFRPAPLRTRAQLPPESPSRRRTEIRVSEMLDWLLQLEQNEYQPHLKLFSRIQLGLSKTFPTVTFEPNQIRHRTDDILSPAGKIMNDGIGRMSRSVARKIRDALGLSDIPSAIQGRMGSAKGMWLMDVADAGDDDWIETYPSQRKWKCDDADALHRTLEIRSVSTELKPAALNLQFLPVLEDRAKDKARMRRAIAARLMNDLKKQFDSQKAAVERPLQFRQWVNECTNSRSERVRHGQVPFLGGLPENKGEVLSFLLNSGFDRRQKYIQDLAFDLQKQRCEVLRTKLNIHVGRSAYMFMVVDFWGVLEENEVHVGFSSKFRDDVDDTTYMLLTDCDVLVARSPAHFPSDIQKVRAVFKPQLHALKDVIVFPAKGDIPLADKLSGGDYDGDMAWVCWDPDIVENFTNADMPKEPDLSAYLGKDKTTFGELVRDTGRTGAAARHEAVYDMINKSFQFAMQPNYLGICTNYKERVCYHNNSVSDGVALLLSTLVGKLVDQSKQGILFDAASWDRLRRERLGGRMSVEDPAYKGDVWAGAGEPRHIVDYLKFAVAKPTIDRELEELHKVMQASRRAGPDDDAAAHSWDPDLAVYFENFKALTAESRSLRAVLEALQNALGAVEHEWKVLMSKGSSSSLTYPEKVRQLHAKWCAIEPRAVGRAGSNRLDAKTAALLEQPFLADRGGAGTSYWALLRASTAFKAYYKTNPKFVWQMAGAQLAFIKAQMSSPGGGGGGGSDGMPLLVTPLMYAGLAPDGRFVKQYLARLECDGSQYPDDDLEGDGEDGGGGGGRGDDVD
notes: QDE-1 ortholog of Thielavia terrestris, catalytic fragment; synthetic ORF from Genscript cloned into pFB-LIC-Bse; the monomer used for crystallization has 1,034 residues including the His tag and the tobacco etch virus protease cleavage site; numbers count on: the catalytic fragment; A TEV protease cleavage site lies between the His tag and the fragment and was not cut in the crystallized …
stoichiometry N: 2

From PMC4861493, “Functional Evolution in Orthologous Cell-encoded RNA-dependent RNA Polymerases*” (The Journal of Biological Chemistry, 2016)
